Reference: US10654917B2, “Antibody molecules and peptide delivery systems for use in alzheimer's disease and related disorders” (TECHNOPHAGE, INVESTIGAÇĀO E DESENVOLVIMENTO EM …, priority 2015, dated 2020)

B1: #27in: anti-BAP42 sdAb, SEQ ID NO: 4 (antibody, V domains shown)
VL: ELVLTQTPSSVSAAVGGTVTINCQASQSVSNRLAWYQQKPGQPPKLLIYGASRLESGVPSRFRGSGSGTEFTLTISGMKAEDAATYYCQSCYYSVGVTFGAGTNVEIK

Experiments:
[1] = tested on: in vitro model of the BBB (bEnd3 cells); test: Transmigration of radiolabelled peptides across in vitro BBB model; assay type: in vitro ADME
Description: Using the same in vitro model of the BBB described above, peptides labelled with technetium and gallium were tested for the ability to cross endothelial barrier. For each peptide, bEnd3 cells cultured on “tissue culture inserts” were incubated with 5 ρCimL^−1-labelled peptide for different incubation times: 15 min, 5 h and 24 h. As a control, the model without cells was used (Control no cells) or (Filters) and compared to models with cells (BBB) or (Cells).
FIGS. 21A-21F show the percent activity of the radioisotope technetium-labelled peptides at the apex and base after 5 hours of incubation with the in vitro model described above, using the BBB-model or no cells (as a control); and values were obtained from two independent assays. […] Moreover, the results indicated promising candidates. Specifically, for each of pepH1 and pepH3, there was an overpass of 50% in the control, compared with only 20% in the presence of a cell barrier. The translocation of pepH2 was not observed in either the control nor in the BBB model.
Results for the incubations of 15 minutes, 5 hours, and 24 hours are shown together in FIGS. 22A-22F. That is, FIGS. 22A-22F show the percent activity of the radioisotope technetium-labelled peptides at the apex and base after 15 minutes, 5 hours, and 24 hours of incubation with the in vitro model described above, using the BBB-model or no cells (as a control); and values were obtained from two independent assays. Differences again were observed, confirming the integrity of the barrier, as well as identifying peptides that crossed the barrier. […] PepR′ thus was excluded from further tests.
(§1) Table 9 summarizes results regarding uptake (internalization) and cellular interaction, as well as transmigration across an in vitro model for BBB, for peptides labelled with technetium and gallium, after 15 minutes, 5 hours, and 24-hours of incubation, based on percent recovery of radiopeptide. The Table lists the peptides, providing each peptide's name, % BBB transmigration, % cellular interaction, and % internalized, each after […], 5 hours, and 24 hours of incubation.

bEnd3 cells [2] = test: MTT cell viability assay; assay type: cell-based; conditions: for effect on cell viability: 0.1-100 μM (pepM′ 0.1-50 μM), 24 hours; for cell death: concentration below 40 μM, peptide in DMSO
Description: To test possible toxicity of selected peptides to BBB cells, 5×10^4 bEnd3 cells were cultured in 96-well plates, at 100 μL/well, and incubated for 24 hours. The peptides then were added at concentrations of 0.1-100 μM, with the exception of pepM′ (which was added at concentrations of 0.1-50 μM). As a control providing 100% of viability, a well with serum-free media was included.
After 24 hours of incubation, a MTT assay was performed, which is a colorimetric assay for assessing cell metabolic activity. A MTT solution at 5 mg/mL in PBS was added to each well and incubated for 2 hours. After this period, the solution was removed and DMSO added to solubilize violet crystals formed. Absorbance was measured at 540 nm. The viability percentage [Absorbancepeptide-treated cells/Absorbanceuntreated-cells)*100] was calculated and IC50 values were calculated from three independent assays.
As FIGS. 24A-24E show, the selected peptides have no effect on cell viability, specifically, there was no observable nor measurable effect using the assay described.

[3] = Biodistribution of technetium-labelled peptides; assay type: in vivo, CD1 mice
Description: To evaluate the capacity to cross the BBB in vivo, the selected peptides, pepH1 and pepH3, were analyzed for biodistribution in CD1 mice. The peptides were labelled with technetium at a final concentration of 8.5×10^−5 M and diluted in PBS. CD1 mice were injected (iv injection, tail vein). The mice were sacrificed by cervical dislocation after 5 and 60 minutes of incubation. The tissues of interest were dissected and washed to remove excess blood, weighed, and measured for radioactivity. Technetium radioactivity of the different peptides was measured for different organs.
Initial results are presented in Table 11, where “% I.A. refers to the “% injected activity”, that is, the amount of radioactivity measured in a given organ compared to the total originally injected.
The biodistribution studies were repeated, using higher doses of each peptide, specifically, a one hundred fold increase, as well as using PepH2 as a negative control, and allowing incubation for 2 minutes and 60 minutes. Tissue biodistribution profile in percentage of injected radiopeptide activity per gram of tissue/organ was measured and results are presented in Table 12.

[4] = Features of peptides: isoelectric point, charge; assay type: physicochemical; conditions: original peptide
Excerpt: Table 7 lists each peptide's name, isoelectric point (PI), charge (number of positive residues), calculated mass (in Da), and ion found; as well as the name, calculated mass, and found ion for the corresponding conjugate; and also retention times in HPLC and the partition coefficient (log Po/w). These values allowed the determination of the hydrophilic nature of peptides, where pepH1 and pepH4 were identified as the most hydrophilic peptides.

bEnd3 cells [5] = test: Uptake test: cellular interaction (acid wash) and internalization (lysate); assay type: cell-based
Description: In addition to testing models of BBB, an uptake test was performed to determine the internalizing ability of the candidate peptides. BEnd3 cells were cultured in 24 well plates. At each time point, the medium containing the peptide, which had not interacted with the cells, was collected. In the next step, the cells were washed with an acidic buffer that releases peptides more strongly bound to the cell membrane (sample acid wash). Finally, the cells were lysed to release internalized peptides and to quantify the activity inside the cells. Results are showing in FIGS. 23A-23E.
FIGS. 23A-23E show percent activity of the radioisotope technetium-labelled peptides in the media, wash buffer (acid wash) and lysate, after 15 minutes, 5 hours, and 24 hours of incubation with bEnd3 cells; and values were obtained from two independent assays. […] PepM′, as well as showing high transmigration (about 50%), also appeared to become internalized and accumulated within the cells (about 13% of radioactivity in the lysate).
as §1

[6] = parameters: species or system CD1 mice; conditions: mouse, in vivo
Description: The different antibody-peptide constructs were used in biodistribution assays, and results compared with the biodistribution of the respective DEN2C peptides (pepH1, pepH2, pepH3, and pepM′, chemically synthesized). […] After expression and purification, the sdAbs and sdAb-peptide constructs were conjugated to technetium (^99Tc) and a biodistribution assay was performed, as previously described.
Tables 14-16 show the biodistribution of different anti-BAP42 sdAbs and constructs thereof with different peptides (“pepH3”).

[7] = 99mTc, 24 hours, listed as PepHM′

Row | Molecule | BBB transmigration ([1]; 99mTc, 24 hours) | effect on cell viability (bEnd3 cells [2]) | cell death (bEnd3 cells [2]) | BBB transmigration ([1]; 99mTc, 0.25 hours) [%] | BBB transmigration ([1]; 99mTc, 5 hours) [%] | BBB transmigration ([1]; GaCl3, 0.25 hours) [%] | BBB transmigration ([1]; GaCl3, 5 hours) [%] | BBB transmigration ([1]; GaCl3, 24 hours) [%] | Charge (number of positive residues) [4] | PI (isoelectric point) [4] | Cellular interaction (bEnd3 cells [5]; 99mTc, 0.25 hours) [%] | Internalization (bEnd3 cells [5]; 99mTc, 0.25 hours) [%] | Cellular interaction (bEnd3 cells [5]; 99mTc, 5 hours) [%] | Internalization (bEnd3 cells [5]; 99mTc, 5 hours) [%] | Cellular interaction (bEnd3 cells [5]; 99mTc, 24 hours) [%] | Cellular interaction (bEnd3 cells [5]; GaCl3, 0.25 hours) [%] | Internalization (bEnd3 cells [5]; GaCl3, 0.25 hours) [%] | Cellular interaction (bEnd3 cells [5]; GaCl3, 5 hours) [%] | Cellular interaction (bEnd3 cells [5]; GaCl3, 24 hours) [%] | Internalization (bEnd3 cells [5]; GaCl3, 24 hours) [%] | further results
1 | KEIGRMLNILNRRRR [PepR′] | more limited in crossing the barrier | – | – | – | – | – | – | – | – | – | – | – | – | – | – | – | – | – | – | – | –
2 | KLFMALVAFLRFLT [PepH2] | 9.32 ± 2.5% | small decrease in viability | no cell death | 0.79 ± 0.7 | 5.21 ± 3.3 | 0.33 ± 0.1 | 4.06 ± 0.3 | 13.51 ± 0.7 | 2 | 11 | 1.60 ± 0.3 | 2.15 ± 1.2 | 5.95 ± 3.0 | 24.8 ± 2.0 | 2.20 ± 0.4 | 0.77 ± 0.1 | 0.84 ± 0.1 | 1.48 ± 0.1 | 1.16 ± 0.1 | 9.24 ± 1.2 | radioactivity levels in the brain ([3]; 80 μg, after 60 minutes): 0.2%; radioactivity in the brain ([3]; 140 μg (pepH1, pepH3) or 80 μg (pepH2), 2 min): 0.37%; excreted ([3]; 140 μg (pepH1, pepH3) or 80 μg (pepH2), after 60 min): 12.7%; brain uptake ([3]; after 2 min): rapid brain uptake; brain washout ([3]; mouse, in vivo): brain washout was slower; BBB transmigration ([1]; 99mTc, 5 hours, listed as pepH2): not observed; BBB transmigration ([1]; 99mTc, 24 hours, listed as pepH2): 9%; Internalization (bEnd3 cells [5]; GaCl3, 5 hours): 6.97 ± 0.3%
3 | KSKAINVLRGFRKEIGRMLNILN [PepH4] | – | – | – | 3.30 ± 0.5 | 30.08 ± 1.6 | 0.93 ± 0.1 | 16.60 ± 1.1 | 60.79 ± 2.6 | 6 | 11.7 | 2.06 ± 0.3 | 0.17 ± 0.0 | 10.10 ± 0.1 | 1.53 ± 0.0 | 10.23 ± 0.8 | 4.06 ± 0.2 | 0.26 ± 0.0 | 3.00 ± 0.1 | 3.82 ± 0.1 | 1.55 ± 0.1 | where the radiopeptide is found in the uptake test (media, acid wash, lysate) (bEnd3 cells [5]; 99mTc): mainly remained in the incubation medium; Internalization (bEnd3 cells [5]; 99mTc, 24 hours): 2.83 ± 0.2%; Internalization (bEnd3 cells [5]; GaCl3, 5 hours): 0.78 ± 0.0%
4 | LVAFLRFLTIPPTAGILKRW [PepM′] | about 50% | small decrease in viability | no cell death | – | – | – | – | 47.31 ± 1.2 | 3 | 12.0 | – | – | – | – | 8.32 ± 1.9 | – | – | – | 2.23 ± 0.1 | 3.68 ± 0.0 | BBB transmigration [1, 7]: 53.47 ± 3.1%; BBB transmigration ([1]; 99mTc, 24 hours, listed as pepM): ~50%; Internalization (bEnd3 cells [5]; 99mTc, 24 hours): about 13%; Internalization (bEnd3 cells [5]; [7]): 12.81 ± 2.0%
5 | B1 | – | – | – | – | – | – | – | – | – | – | – | – | – | – | – | – | – | – | – | – | factor by which washout from the brain is slowed on linking to delivery peptide pepH3 [6]: about 2; factor of increase of presence in the brain on linking to delivery peptide pepH3 [6]: about 6
